Experimental data published in patent publication US20190203174A1.

What was measured:
[1] = target: PE-labeled DR1 tetramers loaded with FVIII-2191-2220 (human) (UniProt P01903); assay: flow cytometry, DR1 tetramer staining of transduced CD4 T cells
[2] = target: PE-labeled DR1 tetramers loaded with FVIII-2191-2220 (human) (UniProt P01903); assay: flow cytometry, DR1 tetramer staining of transduced naïve CD4 T cells
[3] = target: FVIII-2191-2220 presented on HLA-DR1 by irradiated DR1-PBMCs (human); assay: cell-based or functional assay
[4] = target: PE-labeled DR1 tetramers loaded with FVIII-2191-2220 (human) (UniProt P01903); assay: flow cytometry, PE-labeled DR1 tetramer staining of peptide-expanded transduced T effectors

- fold tetramer staining intensity over non-specific tetramer staining [1]: > 10 fold
- percent tetramer+ of the total CD4 population [2]: 0.2%
- percent tetramer+ of the transduced cells [2]: < 5%
- expansion of GFP cells against culture with pOVA [3]: 50 fold
- proliferation of GFP cells (dye dilution, 4 days) [3]: 100%
- proportion of GFP cells after culture with FVIII-2191-2220 [3]: 61 to 81%
- percent tetramer+ [4]: 24%
B1: FVIII C2-specific human T cell receptor (TCR17195) (TCR)
chain: RQVARVIVFLTLSTLSLAKTTQPISMDSYEGQEVNITCSHNNIATNDYITWYQQFPSQGPRFIIQGYKTKVTNEVASLFIPADRKSSTLSLPRVSLSDTAVYYCLVGDAPNSGNTPLVFGKGTRLSVIANIQNPDPAVYQLRDSKSSDKSVCLFTDFDSQTNVSQSKDSDVYITDKTVLDMRSMDFKSNSAVAWSNKSDFACANAFNNSIIPEDTFFPSPESSCDVKLVEKSFETDTNLNFQNLSVIGFRILLLKVAGFNLLMTLRLWSSRAKRGSGATNFSLLKQAGDVEENPGPMLLLLLLLGPGSGLGAVVSQHPSRVICKSGTSVKIECRSLDFQATTMFWYRQFPKKSLMLMATSNEGSKATYEQGVEKDKFLINHASLTLSTLTVTSAQPEDSSFYICSAHTRANYGYTFGSGTRLTVVEDLNKVFPPEVAVFEPSEAEISHTQKATLVCLATGFFPDHVELSWWVNGKEVHSGVSTDPQPLKEQPALNDSRYCLSSRLRVSATFWQNPRNHFRCQVQFYGLSENDEWTQDRAKPVTQIVSAEAWGRADCGFTSVSYQQGVLSATILYEILLGKATLYAVLVSALVLMAMVKRKDF
